For this assay, the target named is Bovine plasma fibronectin (bovine) (UniProt P07589). As to the kind of experiment: dynamic single-molecule force spectroscopy (AFM); fibronectin adsorbed on a gold surface; integrin or proteoglycan tethered by PEG to the AFM tip; PBS; trigger force 500 pN, no dwell; retraction speed varied; Bell-Evans fit of rupture force against ln(loading rate), fm = 10^7 s^-1 assumed.

The text below walks through data of paper PMC6712418.

Bovine plasma fibronectin (bovine), sequence (P07589 33-2478): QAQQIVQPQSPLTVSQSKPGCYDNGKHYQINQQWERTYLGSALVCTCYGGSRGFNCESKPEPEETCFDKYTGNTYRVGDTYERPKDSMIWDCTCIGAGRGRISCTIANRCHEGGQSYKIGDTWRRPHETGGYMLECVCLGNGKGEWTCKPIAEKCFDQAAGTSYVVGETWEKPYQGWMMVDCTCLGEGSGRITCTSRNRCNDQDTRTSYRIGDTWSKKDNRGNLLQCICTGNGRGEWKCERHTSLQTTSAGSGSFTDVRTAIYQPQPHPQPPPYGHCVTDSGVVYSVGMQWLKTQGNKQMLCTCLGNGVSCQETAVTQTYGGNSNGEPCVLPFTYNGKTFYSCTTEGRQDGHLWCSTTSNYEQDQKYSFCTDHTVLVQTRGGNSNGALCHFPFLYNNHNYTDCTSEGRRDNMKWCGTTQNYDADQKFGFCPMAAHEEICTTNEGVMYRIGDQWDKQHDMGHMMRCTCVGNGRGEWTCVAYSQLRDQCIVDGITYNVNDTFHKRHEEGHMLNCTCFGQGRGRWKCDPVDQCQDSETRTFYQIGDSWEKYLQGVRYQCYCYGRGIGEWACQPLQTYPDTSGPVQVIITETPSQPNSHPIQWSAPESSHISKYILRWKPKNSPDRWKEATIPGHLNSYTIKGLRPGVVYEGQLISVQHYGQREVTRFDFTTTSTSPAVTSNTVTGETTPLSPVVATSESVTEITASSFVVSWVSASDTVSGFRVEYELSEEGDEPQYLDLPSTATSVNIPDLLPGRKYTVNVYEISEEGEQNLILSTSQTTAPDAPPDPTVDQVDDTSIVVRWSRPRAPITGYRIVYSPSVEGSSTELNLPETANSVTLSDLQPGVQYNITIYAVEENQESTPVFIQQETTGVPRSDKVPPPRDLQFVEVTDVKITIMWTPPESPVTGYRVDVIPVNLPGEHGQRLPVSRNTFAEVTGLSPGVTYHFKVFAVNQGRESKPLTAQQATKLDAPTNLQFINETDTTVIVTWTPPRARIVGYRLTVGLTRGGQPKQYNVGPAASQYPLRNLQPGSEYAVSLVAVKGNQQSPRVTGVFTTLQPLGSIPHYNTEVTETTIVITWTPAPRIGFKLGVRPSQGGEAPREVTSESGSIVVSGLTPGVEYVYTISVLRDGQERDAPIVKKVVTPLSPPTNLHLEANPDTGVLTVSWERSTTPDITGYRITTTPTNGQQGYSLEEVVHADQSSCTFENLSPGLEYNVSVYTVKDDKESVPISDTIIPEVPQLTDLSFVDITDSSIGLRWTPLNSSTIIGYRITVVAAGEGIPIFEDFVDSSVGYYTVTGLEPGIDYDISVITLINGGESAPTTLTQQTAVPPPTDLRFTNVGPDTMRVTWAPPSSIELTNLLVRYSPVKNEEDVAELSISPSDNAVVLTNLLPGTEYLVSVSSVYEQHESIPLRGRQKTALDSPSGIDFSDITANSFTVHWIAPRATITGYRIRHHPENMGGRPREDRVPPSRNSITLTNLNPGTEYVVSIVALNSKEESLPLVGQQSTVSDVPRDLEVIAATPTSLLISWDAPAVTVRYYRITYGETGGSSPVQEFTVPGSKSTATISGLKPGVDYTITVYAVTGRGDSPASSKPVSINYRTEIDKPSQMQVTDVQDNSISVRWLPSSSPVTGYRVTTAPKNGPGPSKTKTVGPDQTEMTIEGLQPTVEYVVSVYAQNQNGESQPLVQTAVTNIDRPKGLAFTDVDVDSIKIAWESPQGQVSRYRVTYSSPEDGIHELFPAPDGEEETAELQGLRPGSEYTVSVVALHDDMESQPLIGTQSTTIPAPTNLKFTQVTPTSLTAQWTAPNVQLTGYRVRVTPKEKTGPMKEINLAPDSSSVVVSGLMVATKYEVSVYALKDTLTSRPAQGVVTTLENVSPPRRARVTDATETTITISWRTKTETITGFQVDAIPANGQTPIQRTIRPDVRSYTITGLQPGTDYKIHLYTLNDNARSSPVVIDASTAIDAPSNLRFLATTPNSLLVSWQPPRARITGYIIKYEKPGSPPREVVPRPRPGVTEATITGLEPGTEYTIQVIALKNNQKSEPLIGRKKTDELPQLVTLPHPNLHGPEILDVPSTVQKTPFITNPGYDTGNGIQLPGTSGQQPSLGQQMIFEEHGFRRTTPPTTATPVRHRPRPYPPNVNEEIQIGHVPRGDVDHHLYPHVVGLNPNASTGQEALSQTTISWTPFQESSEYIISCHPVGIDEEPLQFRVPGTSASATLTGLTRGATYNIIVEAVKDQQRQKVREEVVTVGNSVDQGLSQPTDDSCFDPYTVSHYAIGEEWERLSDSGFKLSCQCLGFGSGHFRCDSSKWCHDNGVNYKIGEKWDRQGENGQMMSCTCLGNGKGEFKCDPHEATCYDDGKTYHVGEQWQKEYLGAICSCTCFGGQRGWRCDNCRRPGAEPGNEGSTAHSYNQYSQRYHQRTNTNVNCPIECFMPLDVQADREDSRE

In turn, “Recombinant human α5β1-integrin (from UniProt P08648 42-1049; P05556 21-728) (receptor)” yielded a dissociation rate Kd, inner barrier of 70 s⁻¹ and a dissociation rate Kd, outer barrier of 0.18 s⁻¹.
